Results from patent publication US7098012B1, “DNA demethylase, therapeutic and diagnostic uses thereof” (McGill University, priority 1997, dated 2006).

System: DNA dMTase
Experiment: Demethylation of [mdC32pdG]n substrate (conversion of mdCMP to dCMP) with additives or pretreatment
Format: biochemical, human
Details: transformation of mdC to C or release of volatile methyl residues; proteinase K 200 μg/ml 1 h 56° C.; RNase A 100 μg/ml
Procedure: (A) To assay the conversion of methyl-dCMP (mdCMP) to dCMP we used a previously described method (Szyf et al., 1995). Briefly, α^32P labeled, fully methylated poly[mdC^32PdG]n substrate was prepared as follows. One hundred ng of a double-stranded fully methylated (mdCpdG) oligomer (Pharmacia) were denatured by boiling, which was followed by partial annealing at room temperature. The complementary strand was extended with Klenow fragment (Boehringer Mannheim) using methyl-5-dCTP (mdCTP, 0.1 mM) (Boehringer Mannheim) and […] (100 μCi, 3000 Ci/mmol), and the unincorporated nucleotides were removed by chromatography through a NAP-5 column (Pharmacia). The NAP-5 chromatography was repeated to exclude minor contamination with unincorporated nucleotides. […] The digestion products were loaded onto a thin layer chromatography plate (TLC) (Kodak, 13255 Cellulose), separated in a medium containing, 132 ml Isobutyric acid:40 ml water:4 ml ammonia solution, autoradiographed and the intensity of the different spots was determined using a phosphorimager (Fuji, BAS 2000). ^32P labeled substrates and tritium labeled substrates were phosphoimaged using BAS 2000 plate and BAS-TR2040 phosphorimager plate respectively. (B) The second method determined removal of methylated residues from methylated DNA by measuring disappearance of ^3H—CH3 or ^14C—CH3 from the reaction mixture. […]

Row | Molecule | DNA dMTase activity after enzyme treatment
1 | RNase: RNase A (Sigma) used to treat column fractions (protein, UniProt P61823 27-150, looked up) Ribonuclease pancreatic: KETAAAKFERQHMDSSTSAASSSNYCNQMMKSRNLTKDRCKPVNTFVHESLADVQAVCSQKNVACKNGQTNCYQSYSTMSITDCRETGSSKYPNCAYKTTQANKHIIVACEGNPYVPVHFDASV | not inhibited but rather enhanced
2 | proteinase K: proteinase K (Sigma) used to pretreat DNA dMTase (protein, UniProt P06873 106-384, looked up) Proteinase K: AAQTNAPWGLARISSTSPGTSTYYYDESAGQGSCVYVIDTGIEASHPEFEGRAQMVKTYYYSSRDGNGHGTHCAGTVGSRTYGVAKKTQLFGVKVLDDNGSGQYSTIIAGMDFVASDKNNRNCPKGVVASLSLGGGYSSSVNSAAARLQSSGVMVAVAAGNNNADARNYSPASEPSVCTVGASDRYDRRSSFSNYGSVLDIFGPGTSILSTWIGGSTRSISGTSMATPHVAGLAAYLMTLGKTTAASACRYIADTANKGDLSNIPFGTVNLLAYNNYQA | abolished
